From US20220119534A1 (DRAGONFLY THERAPEUTICS, published 2022)
Values joined by “and” are separate entries in the source; they are usually repeats but may differ in a detail not shown here. Equal entries are not always repeated.

T1: Human CLEC12A expressed on cells (Ba/F3-hCLEC12A, PL21, HL60) (human, UniProt Q5QGZ9 1-265)
T1 construct: Ba/F3 cells transduced with human CLEC12A; PL21 and HL60 AML lines express it endogenously; also called cell surface expressed CLEC12A
T1 sequence: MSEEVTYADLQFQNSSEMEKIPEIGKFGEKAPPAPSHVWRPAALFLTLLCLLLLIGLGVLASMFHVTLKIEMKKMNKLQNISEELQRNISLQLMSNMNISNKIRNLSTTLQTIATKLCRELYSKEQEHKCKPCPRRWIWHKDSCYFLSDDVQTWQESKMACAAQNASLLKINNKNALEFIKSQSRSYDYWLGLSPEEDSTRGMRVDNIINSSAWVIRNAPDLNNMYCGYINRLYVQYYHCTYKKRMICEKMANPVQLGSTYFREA

T2: Human CLEC12A-His (recombinant, K244 WT) (human, UniProt Q5QGZ9 65-265)
T2 construct: Made in house (Dragonfly Tx); also called hCLEC12A; hCLEC12A-His; not shown: His tag
T2 sequence: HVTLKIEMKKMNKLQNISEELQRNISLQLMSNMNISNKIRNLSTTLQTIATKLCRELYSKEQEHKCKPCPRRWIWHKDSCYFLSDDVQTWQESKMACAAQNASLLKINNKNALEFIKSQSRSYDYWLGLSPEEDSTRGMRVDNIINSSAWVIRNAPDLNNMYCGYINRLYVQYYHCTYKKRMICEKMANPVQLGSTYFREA

T3: Human CLEC12A-K244Q-His (human, UniProt Q5QGZ9 65-265)
T3 construct: Polymorphic variant; also called hCLEC12A (Q244); not shown: His tag
T3 chain: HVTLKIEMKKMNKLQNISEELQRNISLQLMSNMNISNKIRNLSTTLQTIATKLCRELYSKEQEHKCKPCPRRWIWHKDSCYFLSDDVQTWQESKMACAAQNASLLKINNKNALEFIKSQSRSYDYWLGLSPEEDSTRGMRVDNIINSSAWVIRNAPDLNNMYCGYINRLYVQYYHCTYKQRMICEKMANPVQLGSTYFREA

T4: mFc-hNKG2D (human, UniProt P26718 73-216)
T4 construct: extracellular domain; Recombinant mFc-tagged NKG2D dimer, made in house; also called human NKG2D; not shown: mouse Fc tag
T4 sequence (looked up): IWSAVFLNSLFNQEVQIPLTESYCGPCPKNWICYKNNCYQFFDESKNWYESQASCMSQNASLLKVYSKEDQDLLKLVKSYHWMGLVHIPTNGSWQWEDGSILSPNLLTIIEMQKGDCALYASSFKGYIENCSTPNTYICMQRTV


Key:
[1] = target: T1, Human CLEC12A expressed on cells …; assay: flow cytometry on HL-60 AML cells
[2] = target: T5, Human CD16a V158 (FcγRIIIa V158) (human, UniProt P08637 17-208, biotinylated); assay: SPR 25C, biotinylated CD16a V158 captured
T5 construct: Bought recombinant receptor; also called hCD16aV; hFcγRIIIa V158
Method: Human and cynomolgus CD64, high and low affinity alleles of CD16a (V158 and F158, respectively), two alleles of CD32a (H131 and R131), CD16b, CD32b and cynomolgus CD16 were captured via biotin on a primed (according to the manufacturers instruction) Biacore chip. […] Due to irreversibility of streptavidin-biotin interaction, the capture step for all receptors except FcγRI (CD64) was performed just once prior to the start of the binding experiment. hCD64 and cyno CD64 capture on the CAP chip surface was performed during each cycle in accordance with the manufacturer's instructions for the Biotin CAPture kit.

[3] = target: T2, Human CLEC12A-His (recombinant, K244 WT); assay: SPR 37C, AB0089 captured on anti-hFc, two-state fit (kd1)
Method: Briefly, human Fc specific antibodies were covalently immobilized at a density ˜8000-10000 resonance units (RU) on carboxy methyl dextran matrix of a CM5 biosensor chip via amine-coupling chemistry to create an anti-hFc IgG chip. […] Association was monitored for 300 seconds and dissociation was monitored for 600 seconds. Surfaces were regenerated between cycles with three pulses of 10 mM glycine-HCl, pH 1.7 injected for 20 seconds at 100 μl/min. HBS-EP+ (1×) with 0.1 mg/ml BSA was used as running buffer throughout the experiment. Experiments were performed at physiological temperature of 37° C. To obtain kinetic rate constants and overall binding affinity, double-referenced data were fit to a two-state kinetic model using Biacore 8K Insight Evaluation software (Cytiva).

Human CLEC12A-K244Q-His = target: T3, Human CLEC12A-K244Q-His; assay: SPR, hCLEC12A (Q244) variant
mFc-hNKG2D = target: T4, mFc-hNKG2D; assay: SPR, 37 C, mFc-hNKG2D captured, steady state fit
From the text: NKG2D is a dimer in nature, therefore recombinant mFc-tagged NKG2D dimer was used for this experiment. […] Two different fits were utilized to obtain the equilibrium affinity data: steady state affinity fit and kinetic fit.

T5 sequence (P08637 17-208 F176V limits assumed): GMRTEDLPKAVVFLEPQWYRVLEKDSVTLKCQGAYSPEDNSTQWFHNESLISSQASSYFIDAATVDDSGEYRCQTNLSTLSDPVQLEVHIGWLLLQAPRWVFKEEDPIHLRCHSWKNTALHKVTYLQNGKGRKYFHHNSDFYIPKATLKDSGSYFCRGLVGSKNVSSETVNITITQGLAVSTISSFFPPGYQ

EC50 [1] [nM]	Kd [2]	koff [2]	kon [2]	koff [3]	Kd (Human CLEC12A-K244Q-His) [nM]	koff (Human CLEC12A-K244Q-His) [s⁻¹]	kon (Human CLEC12A-K244Q-His) [M⁻¹ s⁻¹]	Kd (mFc-hNKG2D)	Binder
0.74	336 nM and 343 nM and 321 nM	0.0294 s⁻¹ and 0.0264 s⁻¹ and 0.0272 s⁻¹	87600 M⁻¹ s⁻¹ and 77000 M⁻¹ s⁻¹ and 84600 M⁻¹ s⁻¹	0.0426 s⁻¹ and 0.0449 s⁻¹ and 0.0432 s⁻¹	–	–	–	–	AB0089 TriNKET (bispecific antibody, human IgG1, kappa, F3' format heterodimer of three chains; human IgG1 Fc with EW-RVT and Y349C/S354C mutations; also called AB0089 Lot AB0089-002; CLEC12A TriNKET AB0089) QLQLQESGPGLVKPSETLSLTCTVSGFSLTNYGLHWIRQPPGKCLEWIGVIWVGGATDYNPSLKSRVTISVDTSKNQFSLKLSSVQAADTAVYYCAKGDYGDTLDYWGQGTLVTVSSGGGGSGGGGSGGGGSGGGGSDIQMTQSPSSLSASVGDRVTITCHASQNINFWLSWYQQKPGKAPKLLIYEASNLHTGVPSRFSGSGSGTDFTLTISSLQPEDFATYYCQQSHSYPLTFGCGTKLEIKGSDKTHTCPPCPAPELLGGPSVFLFPPKPKDTLMISRTPEVTCVVVDVSHEDPEVKFNWYVDGVEVHNAKTKPREEQYNSTYRVVSVLTVLHQDWLNGKEYKCKVSNKALPAPIEKTISKAKGQPREPRVYTLPPCRDELTKNQVSLTCLVKGFYPSDIAVEWESNGQPENNYKTTPPVLVSDGSFTLYSKLTVDKSRWQQGNVFSCSVMHEALHNHYTQKSLSLSPG heavy: EVQLVESGGGLVKPGGSLRLSCAASGFTFSSYSMNWVRQAPGKGLEWVSSISSSSSYIYYADSVKGRFTISRDNAKNSLYLQMNSLRAEDTAVYYCARGAPIGAAAGWFDPWGQGTLVTVSSASTKGPSVFPLAPSSKSTSGGTAALGCLVKDYFPEPVTVSWNSGALTSGVHTFPAVLQSSGLYSLSSVVTVPSSSLGTQTYICNVNHKPSNTKVDKKVEPKSCDKTHTCPPCPAPELLGGPSVFLFPPKPKDTLMISRTPEVTCVVVDVSHEDPEVKFNWYVDGVEVHNAKTKPREEQYNSTYRVVSVLTVLHQDWLNGKEYKCKVSNKALPAPIEKTISKAKGQPREPQVCTLPPSRDELTENQVSLTCLVKGFYPSDIAVEWESNGQPENNYKTTPPVLDSDGSFFLYSWLTVDKSRWQQGNVFSCSVMHEALHNHYTQKSLSLSPG light: DIQMTQSPSSVSASVGDRVTITCRASQGISSWLAWYQQKPGKAPKLLIYAASSLQSGVPSRFSGSGSGTDFTLTISSLQPEDFATYYCQQGVSFPRTFGGGTKVEIKRTVAAPSVFIFPPSDEQLKSGTASVVCLLNNFYPREAKVQWKVDNALQSGNSQESVTEQDSKDSTYSLSSTLTLSKADYEKHKVYACEVTHQGLSSPVTKSFNRGEC
–	–	–	–	–	4.51	0.0037	824000	770 nM and 783 nM and 788 nM	AB0192 TriNKET (other, the condition stands under assay; also called AB0192 Lot AB0192-005) EVQLVESGGGVVQPGGSLRLSCAASGFTFNAFGMHWVRQAPGKCLEWVAFISSGSTSIYYANTVKGRFTISRDNSKNTLYLQMNSLRAEDTAVYYCARDGYPTGGAMDYWGQGTSVTVSSGGGGSGGGGSGGGGSGGGGSDIQMTQSPSSLSASVGDRVTITCKASQDIYNYLSWFQQKPGKAPKPLIYRANILVSGVPSRFSGSGSGQDYTFTISSLQPEDIATYYCLQFDAFPFTFGCGTKLEIKGSDKTHTCPPCPAPELLGGPSVFLFPPKPKDTLMISRTPEVTCVVVDVSHEDPEVKFNWYVDGVEVHNAKTKPREEQYNSTYRVVSVLTVLHQDWLNGKEYKCKVSNKALPAPIEKTISKAKGQPREPRVYTLPPCRDELTKNQVSLTCLVKGFYPSDIAVEWESNGQPENNYKTTPPVLVSDGSFTLYSKLTVDKSRWQQGNVFSCSVMHEALHNHYTQKSLSLSPG heavy: EVQLVESGGGLVKPGGSLRLSCAASGFTFSSYSMNWVRQAPGKGLEWVSSISSSSSYIYYADSVKGRFTISRDNAKNSLYLQMNSLRAEDTAVYYCARGAPIGAAAGWFDPWGQGTLVTVSSASTKGPSVFPLAPSSKSTSGGTAALGCLVKDYFPEPVTVSWNSGALTSGVHTFPAVLQSSGLYSLSSVVTVPSSSLGTQTYICNVNHKPSNTKVDKKVEPKSCDKTHTCPPCPAPELLGGPSVFLFPPKPKDTLMISRTPEVTCVVVDVSHEDPEVKFNWYVDGVEVHNAKTKPREEQYNSTYRVVSVLTVLHQDWLNGKEYKCKVSNKALPAPIEKTISKAKGQPREPQVCTLPPSRDELTENQVSLTCLVKGFYPSDIAVEWESNGQPENNYKTTPPVLDSDGSFFLYSWLTVDKSRWQQGNVFSCSVMHEALHNHYTQKSLSLSPG light: DIQMTQSPSSVSASVGDRVTITCRASQGISSWLAWYQQKPGKAPKLLIYAASSLQSGVPSRFSGSGSGTDFTLTISSLQPEDFATYYCQQGVSFPRTFGGGTKVEIKRTVAAPSVFIFPPSDEQLKSGTASVVCLLNNFYPREAKVQWKVDNALQSGNSQESVTEQDSKDSTYSLSSTLTLSKADYEKHKVYACEVTHQGLSSPVTKSFNRGEC
